{
  "source": "patent CN110845607A",
  "about": "(UNIV WEIFANG MEDICAL; SHANDONG KUANHEZHENG BIOMEDICINE CO …, dated 2020)",
  "target": "牛血清蛋白 (BSA) (bovine, UniProt P02769 25-607)",
  "sequence (P02769 25-607 limits assumed)": "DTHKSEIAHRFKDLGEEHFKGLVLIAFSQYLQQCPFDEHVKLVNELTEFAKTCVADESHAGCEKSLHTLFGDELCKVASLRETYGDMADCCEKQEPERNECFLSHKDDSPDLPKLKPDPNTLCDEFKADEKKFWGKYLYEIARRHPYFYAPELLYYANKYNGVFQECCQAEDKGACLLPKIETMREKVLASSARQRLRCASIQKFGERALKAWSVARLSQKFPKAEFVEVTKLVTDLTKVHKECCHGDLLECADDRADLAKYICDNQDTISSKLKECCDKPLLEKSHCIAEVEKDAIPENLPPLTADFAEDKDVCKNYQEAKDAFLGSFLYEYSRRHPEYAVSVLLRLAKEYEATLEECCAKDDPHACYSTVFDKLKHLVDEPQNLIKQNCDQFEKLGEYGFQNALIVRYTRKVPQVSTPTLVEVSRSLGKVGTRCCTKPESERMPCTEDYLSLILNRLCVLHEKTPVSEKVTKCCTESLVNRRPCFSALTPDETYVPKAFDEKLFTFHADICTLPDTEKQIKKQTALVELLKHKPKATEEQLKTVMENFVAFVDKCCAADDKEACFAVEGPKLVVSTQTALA",
  "experiment": "ELISA",
  "data": [
    {"binder": "F1 Fab片段 (purified Fab fragment of anti-H1N1 monoclonal antibody F1) (Fab, V domains shown, also called 抗体F1Fab; 单克隆抗体F1) VH: QVQLKESGDDLVKPGASVKLSCKASGYTFTNYWINWIKQRPGQGLEWIGRTAPGSGSTYYNELFKGKATLTVDTSSSTAYIQLSSLSSEDSAVYFCALSTGTGALDYWGQGTSVTVS VL: DIVMTQSPLSLPVSLGDQASISCRSSQSLVHSNGNTYLHWYLQKPGQSPKLLIYKVSNRFSGVPDRFSGSGSGTDFTLKISRVEAEDLGVYFCSQSTHVPWTFGGGTKLEIKR", "values": [
      {"measurement": "binding result", "result": "no binding"}
    ]}
  ]
}
